Like-named read-outs stand apart in the source and are kept apart here. Positions of bridges follow the written chain, without caps; N, C: chain ends. Non-standard residues stand in square brackets, D forms with d. Residues, ends and D or L forms follow the SMILES beside them. No end group written: not given here.
Tests used:
Plexin B1 [1] = assay: kd (ms^-1)
Text: (§1) Table printed on a drawing sheet, FIG. 13
Head of the field: kd (ms^-1)
(§2) First copying reader's note: Panel b of FIG. 13; panel a is a bar chart and is left out.

Plexin B1 [2] = assay: ka (μM^-1s^-1)
Text: as §1
Head of the field: ka (μM^-1s^-1)
as §2

Plexin B1 [3] = assay: Ka (µM^-1s^-1)
Text: (§3) Table printed on a drawing sheet, FIG. 2
Head of the field: Ka (µM^-1s^-1)
(§4) The sequences from top to bottom are SEQ ID NO: 40, SEQ ID NO: 31, SEQ ID NO: 37, SEQ ID NO: 30, SEQ ID NO: 38, and SEQ ID NO: 39.
(§5) First copying reader's note: The sequences are only the variable region of the cyclic scaffold drawn in panel b, DW(Variable region)CS-NH2 closed by a thioether bridge.
(§6) Where the first naming reader finds the target: description_of_the_figure: the respective amino acid sequence of the cyclic peptides and their binding affinity to Plexin B1

Plexin B1 [4] = assay: Kd (s^-1)
Text: as §3
Head of the field: Kd (s^-1)
as §4, §5, §6

Plexin B1 [5] = assay: KD (nM)
Text: as §3
(§7) Head of the field: KD (nM)
as §4, §5, §6

[6] = stability test with serum protease; assay type: in vitro ADME; conditions: degradation by serum protease
Procedure: A stability test, with serum protease, of the cyclic peptide P6 and the cyclic peptide having an intramolecular lactam bridge structure was performed (FIG. 11c).

[7] = target: T1, mouse Plexin B1 and Semaphorin 4D (Mus musculus, UniProt Q8CJH3); assay: in vitro pulldown assay of mouse Plexin B1 / Semaphorin 4D interaction (AP activity); assay type: biochemical; conditions: compared with cyclic peptide P6
T1 sequence (Q8CJH3 20-535 limits assumed): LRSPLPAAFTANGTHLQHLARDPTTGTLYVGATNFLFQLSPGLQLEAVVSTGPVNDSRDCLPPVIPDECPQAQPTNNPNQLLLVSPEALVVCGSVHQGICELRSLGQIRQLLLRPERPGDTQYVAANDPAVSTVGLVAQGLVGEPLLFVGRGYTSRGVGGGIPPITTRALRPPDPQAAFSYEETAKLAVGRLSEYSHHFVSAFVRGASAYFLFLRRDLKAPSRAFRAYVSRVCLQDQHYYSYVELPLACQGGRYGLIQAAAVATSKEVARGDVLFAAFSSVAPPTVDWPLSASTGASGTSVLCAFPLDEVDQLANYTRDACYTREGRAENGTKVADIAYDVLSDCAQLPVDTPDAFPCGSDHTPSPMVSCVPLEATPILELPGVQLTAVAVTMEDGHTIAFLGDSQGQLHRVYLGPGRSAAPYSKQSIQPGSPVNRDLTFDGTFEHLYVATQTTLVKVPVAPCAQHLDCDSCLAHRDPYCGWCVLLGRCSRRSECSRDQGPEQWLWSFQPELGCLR
Procedure: The effect of the cyclic peptides shown in FIG. 2c on protein-protein interaction (PPI) of Plexin B1 and Semaphorin 4D was studied by in vitro pulldown assay (FIG. 3). • 1. Plexin B1 or Plexin A2 was immobilized on Sepharose beads. • 2. A cyclic peptide that bound to Plexin B1, a negative control peptide, or dimethylsulfoxide (DMSO) was added to Plexin-B1-immobilized beads. • 3. An alkali phosphatase (AP)-fused protein of Semaphorin 4D or Semaphorin 6A was added. • 4. After washing of the resulting beads, an increase in absorbance of the sample was measured at 405 nm to determined AP activity.
High AP activity relates to high interaction (5) between Semaphorin and Plexin and low AP activity relates to […] interaction (6) between Semaphorin and Plexin.

Plexin B1 [8] = assay: KD (nM); remark: listed apart in the source
Text: as §1, §7, §2

Plexin B1 [9] = assay: KD (nM); remark: listed apart in the source
Procedure: (§8) Table printed on a drawing sheet, FIG. 11
as §7
(§9) First copying reader's note: Panel a of FIG. 11; the BC8 row is highlighted with a frame on the sheet.
(§10) Where the first naming reader finds the target: passage: its binding affinity to Plexin B1 was analyzed by surface resonance plasmon (SPR) (FIG. 11a)

Plexin B1 [10] = assay: kd (s^-1)
Procedure: as §8
Head of the field: kd (s^-1)
as §9, §10

human Plexin B1 [11] = target: T2, human Plexin B1 (human, UniProt O43157 20-535, limits assumed); assay: SPR
T2 sequence (looked up): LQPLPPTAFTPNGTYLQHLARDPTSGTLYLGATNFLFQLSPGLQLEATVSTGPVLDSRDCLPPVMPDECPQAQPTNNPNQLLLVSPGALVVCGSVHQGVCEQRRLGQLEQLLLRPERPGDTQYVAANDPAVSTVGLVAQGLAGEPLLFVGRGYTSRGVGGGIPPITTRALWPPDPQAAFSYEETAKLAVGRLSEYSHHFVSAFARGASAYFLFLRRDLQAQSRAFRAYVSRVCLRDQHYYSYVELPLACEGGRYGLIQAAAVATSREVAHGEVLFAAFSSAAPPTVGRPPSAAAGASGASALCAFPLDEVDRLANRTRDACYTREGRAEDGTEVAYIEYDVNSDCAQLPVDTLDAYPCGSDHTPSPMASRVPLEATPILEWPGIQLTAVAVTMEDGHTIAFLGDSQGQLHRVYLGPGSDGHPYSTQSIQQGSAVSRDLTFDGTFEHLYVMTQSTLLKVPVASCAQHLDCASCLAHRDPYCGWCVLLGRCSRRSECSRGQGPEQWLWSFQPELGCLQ

mouse Plexin B1 = target: T3, mouse Plexin B1 (mouse, UniProt Q8CJH3 20-535, limits assumed); assay: SPR
T3 sequence (looked up): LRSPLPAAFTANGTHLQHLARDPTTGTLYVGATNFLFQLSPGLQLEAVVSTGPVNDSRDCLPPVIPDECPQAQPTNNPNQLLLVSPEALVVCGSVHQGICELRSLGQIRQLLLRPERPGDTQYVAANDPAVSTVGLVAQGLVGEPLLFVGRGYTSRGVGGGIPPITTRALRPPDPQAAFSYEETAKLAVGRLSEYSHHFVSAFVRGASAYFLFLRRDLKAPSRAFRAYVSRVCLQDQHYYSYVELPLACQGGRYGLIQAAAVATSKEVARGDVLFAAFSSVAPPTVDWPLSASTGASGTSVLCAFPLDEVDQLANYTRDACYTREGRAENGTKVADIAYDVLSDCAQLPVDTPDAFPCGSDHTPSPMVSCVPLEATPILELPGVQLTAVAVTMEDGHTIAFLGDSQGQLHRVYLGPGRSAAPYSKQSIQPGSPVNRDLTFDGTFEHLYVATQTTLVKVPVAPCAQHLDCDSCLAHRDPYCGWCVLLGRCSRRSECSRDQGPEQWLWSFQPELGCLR

human Plexin B1 [12] = target: T2, human Plexin B1; assay: SPR; remark: listed apart in the source
human Plexin B1 [13] = target: T2, human Plexin B1; assay: SPR; remark: listed apart in the source

Molecule: P6dPEG5: dimerized cyclic peptide P6 (FIG. 12b) ({CH2CO}-[dW]RPRVARWTGQIIYCS; thioether N-15; also: dimer: two units joined after S16 by PEG linkers)
- kd (ms^-1) (Plexin B1 [1]): 0.447 ms^-1
- ka (Plexin B1 [2]): 1.18e+06 M⁻¹ s⁻¹

Molecule: RPRAARWTGQIIY (not fully specified) [P5]
- Ka (Plexin B1 [3]): 21000 M⁻¹ s⁻¹
- Kd (Plexin B1 [4]): 0.002 s⁻¹
- Kd (Plexin B1 [5]): 77.1 nM

Molecule: RVRVERWTGKLI (not fully specified) [P3]
- Ka (Plexin B1 [3]): 4.27e+06 M⁻¹ s⁻¹
- Kd (Plexin B1 [4]): 0.144 s⁻¹
- Kd (Plexin B1 [5]): 33.7 nM

Molecule: CC[C@H](C)[C@@H]1NC(=O)[C@H](CCC(N)=O)NC(=O)CNC(=O)[C@H]([C@@H](C)O)NC(=O)[C@H](Cc2c[nH]c3ccccc23)NC(=O)[C@H](CCCNC(=N)N)NC(=O)[C@H](C)NC(=O)[C@H](C(C)C)NC(=O)[C@H](CCCNC(=N)N)NC(=O)[C@@H]2CCCN2C(=O)[C@H](CCCNC(=N)N)NC(=O)[C@@H](Cc2c[nH]c3ccccc23)NC(=O)CSC[C@@H](C(=O)N[C@@H](CO)C(N)=O)NC(=O)[C@H](Cc2ccc(O)cc2)NC(=O)[C@H]([C@@H](C)CC)NC1=O [P6, wRPRVARWTGQITYC] ({CH2CO}-[dW]RPRVARWTGQIIYCS-NH2; thioether N-15 (inferred); N-terminus and C-terminus assumed)
- half-life [6]: 3 to 6 h

Molecule: CC(C)[C@@H]1NC(=O)[C@H](Cc2ccc(O)cc2)NC(=O)[C@H](Cc2ccccc2)NC(=O)[C@H]([C@@H](C)O)NC(=O)CNC(=O)[C@H]([C@@H](C)O)NC(=O)[C@H](Cc2c[nH]c3ccccc23)NC(=O)[C@H](CCCNC(=N)N)NC(=O)[C@H](CC(=O)O)NC(=O)[C@H](Cc2ccc(O)cc2)NC(=O)[C@H](Cc2ccccc2)NC(=O)[C@H](Cc2c[nH]c3ccccc23)NC(=O)[C@H](CCCNC(=N)N)NC(=O)[C@@H](Cc2c[nH]c3ccccc23)NC(=O)CSC[C@@H](C(=O)NCC(N)=O)NC1=O [mp6-2, wRWFYDRWTGTFYVC] ({CH2CO}-[dW]RWFYDRWTGTFYVCG-NH2; thioether N-15)
- interaction inhibiting activity between mouse Plexin B1 and Semaphorin 4D [7]: equivalent to that of the cyclic peptide P6

Molecule: NGTLSWQTYSHL [P8]
- Ka (Plexin B1 [3]): 53000 M⁻¹ s⁻¹
- Kd (Plexin B1 [4]): 0.037 s⁻¹
- Kd (Plexin B1 [5]): 689 nM

Molecule: wRPRVARWTGQITYC [P6]
- Ka (Plexin B1 [3]): 3.46e+06 M⁻¹ s⁻¹
- Kd (Plexin B1 [8]): 3.34 nM
- Kd (Plexin B1 [4]): 0.012 s⁻¹
- Kd (Plexin B1 [9]): 3.81 nM
- Kd (Plexin B1 [5]): 3.5 nM
- kd (Plexin B1 [10]): 0.0151 s⁻¹

Molecule: AVSNLPPRPHITYIE [P1]
- Ka (Plexin B1 [3]): 20000 M⁻¹ s⁻¹
- Kd (Plexin B1 [4]): 0.014 s⁻¹
- Kd (Plexin B1 [5]): 700 nM

Molecule: {CH2CO}-[dW]RAFIERWTGRLVVCG (thioether N-15) [cyclic peptide mp6-7]
- Kd (human Plexin B1 [11]): 4.58 nM
- Kd (mouse Plexin B1): 126 nM

Molecule: {CH2CO}-[dW]RPRVARWTGQIIYCS (thioether N-15; also: dimer, two units joined after S16 by PEG linkers, also called dimerized cyclic peptide P6) [P6dPEG5]
- Kd (human Plexin B1 [12]): 0.38 nM
- kon (human Plexin B1 [12]): 1.18e+06 M⁻¹ s⁻¹

Molecule: {CH2CO}-[dW]AVSNLPPRPHITYIECS (thioether N-17) [SEQ ID NO 40]
- Kd (human Plexin B1 [13]): 700 nM
- koff (human Plexin B1 [13]): 0.014 s⁻¹
- kon (human Plexin B1 [13]): 20000 M⁻¹ s⁻¹

Molecule: {CH2CO}-[dW]RPRVARWTGQIIYCS (thioether N-15) [SEQ ID NO 30]
- Kd (human Plexin B1 [13]): 3.5 nM
- koff (human Plexin B1 [13]): 0.012 s⁻¹
- kon (human Plexin B1 [13]): 3.46e+06 M⁻¹ s⁻¹

Molecule: {CH2CO}-[dW]NSNVLSWQTYSWYCS (thioether N-15) [SEQ ID NO 38]
- Kd (human Plexin B1 [13]): 275 nM
- koff (human Plexin B1 [13]): 0.01 s⁻¹
- kon (human Plexin B1 [13]): 38000 M⁻¹ s⁻¹

Molecule: {CH2CO}-[dW]RVRVERWTGKLICS (thioether N-14) [SEQ ID NO 31]
- Kd (human Plexin B1 [13]): 33.7 nM
- koff (human Plexin B1 [13]): 0.144 s⁻¹
- kon (human Plexin B1 [13]): 4.27e+06 M⁻¹ s⁻¹

Molecule: {CH2CO}-[dW]LAYIERWTGQIVRCG (thioether N-15) [cyclic peptide mp6-5]
- Kd (human Plexin B1 [11]): 174 nM
- Kd (mouse Plexin B1): 507 nM

Molecule: {CH2CO}-[dW]RPRAARWTGQIIYCS (thioether N-15) [SEQ ID NO 37]
- Kd (human Plexin B1 [13]): 77.1 nM
- koff (human Plexin B1 [13]): 0.002 s⁻¹
- kon (human Plexin B1 [13]): 21000 M⁻¹ s⁻¹

Molecule: {CH2CO}-[dW]NGTLSWQTYSHLCS (thioether N-14) [SEQ ID NO 39]
- Kd (human Plexin B1 [13]): 689 nM
- koff (human Plexin B1 [13]): 0.037 s⁻¹
- kon (human Plexin B1 [13]): 53000 M⁻¹ s⁻¹

Molecule: {CH2CO}-[dW]LGYIARWTGTVVKCG (thioether N-15) [cyclic peptide mp6-3]
- Kd (human Plexin B1 [11]): 241 nM
- Kd (mouse Plexin B1): 227 nM

From patent US11975040B2, “Plexin binding regulator” (The University of Tokyo, priority 2016, dated 2024)
